Results from patent publication US10239925B2, “Peptides and combination of peptides for use in immunotherapy against ovarian cancer and other cancers” (IMMATICS BIOTECHNOLOGIES GMBH, priority 2015, dated 2019).

The substances below were run against HLA-A*02:01 (Homo sapiens, UniProt P04439, D140Y/D185E/D98H/E176V/E277Q/G131W/G231S/I119V/I121R/I166T/I218V/L300P/L318F/N151K/N90K/P208A/P217A/Q86G/Q94H/R138H/R169H/T345S) (assay: MHC binding assay (UV-ligand exchange, anti-β2m ELISA, peptide exchange yield)). Details: binding to HLA-A*02:01.
Summary of the method: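 Yield of stabilized complexes quantified via the β2m light chain in an ELISA (streptavidin capture, 100-fold diluted monomers, HRP anti-β2m 2 ug/ml at 37 °C, TMB, A450). The complexes come from UV-triggered replacement of a photocleavable ligand by the candidate peptide.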

| Peptide exchange (MHC class I binding score, peptide exchange yield) | Substance |
| --- | --- |
| “++” (>20% = ++) | 458 (SLIDKLYNI; listed as Homo sapiens) [compound 458] |
| “+++” (>50 = +++) | 462 (KLAKQPETV; listed as Homo sapiens) [compound 462] |
| “++++” (>75% = ++++) | 466 (VLIANLEKL; listed as Homo sapiens) [compound 466] |
| “+++” (>50 = +++) | 467 (FLAKDFNFL; listed as Homo sapiens) [compound 467] |
| “+++” (>50 = +++) | 468 (YLRSVGDGETV; listed as Homo sapiens) [compound 468] |
| “+++” (>50 = +++) | 469 (YLASDEITTV; listed as Homo sapiens) [compound 469] |
| “+++” (>50 = +++) | 471 (YLYNNMIAKI; listed as Homo sapiens) [compound 471] |
| “+++” (>50 = +++) | 476 (ALMERTGYSMV; listed as Homo sapiens) [compound 476] |
| “+++” (>50 = +++) | 477 (ALLPASGQIAL; listed as Homo sapiens) [compound 477] |
| “+++” (>50 = +++) | 479 (SLFGNSGILENV; listed as Homo sapiens) [compound 479] |
| “+++” (>50 = +++) | 481 (GLIEDYEALL; listed as Homo sapiens) [compound 481] |
| “+++” (>50 = +++) | 485 (NVPDSFNEV; listed as Homo sapiens) [compound 485] |
| “+++” (>50 = +++) | 490 (FLLQHVQEL; listed as Homo sapiens) [compound 490] |
| “++” (>20% = ++) | 491 (GLNDRSDAV; listed as Homo sapiens) [compound 491] |
| “+++” (>50 = +++) | 492 (SLFDGFADGLGV; listed as Homo sapiens) [compound 492] |
| “++” (>20% = ++) | 494 (ALQPEPIKV; listed as Homo sapiens) [compound 494] |
| “+++” (>50 = +++) | 496 (FLVEKQPPQV; listed as Homo sapiens) [compound 496] |
| “+++” (>50 = +++) | 498 (KLWTGGLDNTV; listed as Homo sapiens) [compound 498] |
| “+++” (>50 = +++) | 500 (SLMEDQVLQL; listed as Homo sapiens) [compound 500] |

| Peptide exchange (MHC class I binding score, peptide exchange yield) | Substance |
| --- | --- |
| “+++” (>50 = +++) | 502 (RLLAQVPGL; listed as Homo sapiens) [compound 502] |
| “+++” (>50 = +++) | 503 (SLNHFTHSV; listed as Homo sapiens) [compound 503] |
| “++” (>20% = ++) | 504 (GLSDGNPSL; listed as Homo sapiens) [compound 504] |
| “++” (>20% = ++) | 505 (SLAPGDVVRQV; listed as Homo sapiens) [compound 505] |
| “+++” (>50 = +++) | 507 (KLIDDQDISISL; listed as Homo sapiens) [compound 507] |
| “+++” (>50 = +++) | 509 (FLFDTKPLIV; listed as Homo sapiens) [compound 509] |
| “++” (>20% = ++) | 510 (KLYSVVSQL; listed as Homo sapiens) [compound 510] |
| “+++” (>50 = +++) | 512 (SLSEIVPCL; listed as Homo sapiens) [compound 512] |
| “+++” (>50 = +++) | 515 (LLQELVLFL; listed as Homo sapiens) [compound 515] |
| “+++” (>50 = +++) | 517 (LLMPIPEGLTL; listed as Homo sapiens) [compound 517] |
| “+++” (>50 = +++) | 519 (GLLHLTLLL; listed as Homo sapiens) [compound 519] |
| “+” (>10% = +) | 520 (LAVHPSGVAL; listed as Homo sapiens) [compound 520] |
| “+++” (>50 = +++) | 521 (MLLTKLPTI; listed as Homo sapiens) [compound 521] |
| “++” (>20% = ++) | 523 (YQIPRTFTL; listed as Homo sapiens) [compound 523] |
| “+++” (>50 = +++) | 528 (SVAEGRALMSV; listed as Homo sapiens) [compound 528] |
| “+++” (>50 = +++) | 530 (VMYADIGGMDI; listed as Homo sapiens) [compound 530] |
| “+++” (>50 = +++) | 531 (YTLPIASSIRL; listed as Homo sapiens) [compound 531] |
| “+++” (>50 = +++) | 537 (TLAPGEVLRSV; listed as Homo sapiens) [compound 537] |

Second part, the substance before the results:

| Substance | Peptide exchange (MHC class I binding score, peptide exchange yield) |
| --- | --- |
| 459 (ALITEVVRL; listed as Homo sapiens) [compound 459] | “++” (>20% = ++) |
| 461 (VMFRTPLASV; listed as Homo sapiens) [compound 461] | “++” (>20% = ++) |
| 464 (ALNDCIYSV; listed as Homo sapiens) [compound 464] | “+++” (>50 = +++) |
| 465 (QLCDLNAEL; listed as Homo sapiens) [compound 465] | “+++” (>50 = +++) |
| 472 (KLLEVSDDPQV; listed as Homo sapiens) [compound 472] | “+++” (>50 = +++) |
| 473 (AMATESILHFA; listed as Homo sapiens) [compound 473] | “+++” (>50 = +++) |
| 474 (YLDPALELGPRNV; listed as Homo sapiens) [compound 474] | “+++” (>50 = +++) |
| 475 (LLLNEEALAQI; listed as Homo sapiens) [compound 475] | “+++” (>50 = +++) |
| 478 (YLLHEKLNL; listed as Homo sapiens) [compound 478] | “+++” (>50 = +++) |
| 480 (ALLEDSCHYL; listed as Homo sapiens) [compound 480] | “+++” (>50 = +++) |
| 484 (SLIEKVTQL; listed as Homo sapiens) [compound 484] | “+++” (>50 = +++) |
| 486 (AVMESIQGV; listed as Homo sapiens) [compound 486] | “+++” (>50 = +++) |
| 487 (LLINSVFHV; listed as Homo sapiens) [compound 487] | “+++” (>50 = +++) |
| 488 (FLAEDPKVTL; listed as Homo sapiens) [compound 488] | “+++” (>50 = +++) |
| 493 (GLLGEKTQDLIGV; listed as Homo sapiens) [compound 493] | “+++” (>50 = +++) |
| 495 (FIFSEKPVFV; listed as Homo sapiens) [compound 495] | “+++” (>50 = +++) |
| 497 (GLLEKLTAI; listed as Homo sapiens) [compound 497] | “+++” (>50 = +++) |
| 501 (LLDPNVKSIFV; listed as Homo sapiens) [compound 501] | “+++” (>50 = +++) |
| 506 (KLLGKVETA; listed as Homo sapiens) [compound 506] | “+++” (>50 = +++) |
| 508 (ILAQEQLVVGV; listed as Homo sapiens) [compound 508] | “+++” (>50 = +++) |
| 513 (SLWPSPEQL; listed as Homo sapiens) [compound 513] | “++” (>20% = ++) |
| 514 (ILVDWLVQV; listed as Homo sapiens) [compound 514] | “+++” (>50 = +++) |
| 516 (AVGPASILKEV; listed as Homo sapiens) [compound 516] | “++” (>20% = ++) |
| 522 (TLWYRSPEV; listed as Homo sapiens) [compound 522] | “++” (>20% = ++) |
| 524 (ALIENLTHQI; listed as Homo sapiens) [compound 524] | “++” (>20% = ++) |
| 525 (VLLEAGEGLVTI; listed as Homo sapiens) [compound 525] | “+++” (>50 = +++) |
| 526 (RLAEVGQYEQV; listed as Homo sapiens) [compound 526] | “++” (>20% = ++) |
| 527 (FLLEPGNLEV; listed as Homo sapiens) [compound 527] | “++++” (>75% = ++++) |
| 529 (LLADELITV; listed as Homo sapiens) [compound 529] | “+++” (>50 = +++) |
